Reference: patent US20090238886A1
Where no end group is shown, it is not given here. The star is where a group is joined. Dansyl = CN(C)c1cccc2c(S(=O)(=O)*)cccc12

Legend:
[1] = biological target: Caco-2 cell membrane (P100) fractions; test: ELISA on coated Caco-2 P100 fraction, anti-dansyl detection; assay 1, peptide at 20 µg/ml
[2] = biological target: Caco-2 cell membrane (P100) fractions; test: ELISA on coated Caco-2 P100 fraction, anti-dansyl detection; assay 2, peptide at 50 µg/ml
[3] = biological target: Caco-2 cell membrane (P100) fractions; test: ELISA on coated Caco-2 P100 fraction, anti-dansyl detection; assay 3, peptide at 50 µg/ml
[4] = biological target: Caco-2 cell membrane (P100) fractions; test: ELISA on coated Caco-2 P100 fraction, anti-dansyl detection; assay 4, peptide at 25 µg/ml
[5] = biological target: Caco-2 cell membrane (P100) fractions; test: ELISA on coated Caco-2 P100 fraction, anti-dansyl detection; assay 5, peptide at 25 µg/ml
[6] = biological target: Caco-2 cell membrane (P100) fractions; test: ELISA on coated Caco-2 P100 fraction, anti-dansyl detection; assay 6, peptide at 25 µg/ml
[7] = biological target: Caco-2 cell membrane (P100) fractions; test: ELISA on coated Caco-2 P100 fraction, anti-dansyl detection; assay 7, peptide at 25 µg/ml
[8] = biological target: Caco-2 cell membrane (P100) fractions; test: ELISA on coated Caco-2 P100 fraction, anti-dansyl detection; assay 8, peptide at 25 µg/ml

| binding to P100 relative to ZElan021 (arbitrary value 1.00) [1] | binding to P100 relative to ZElan021 (arbitrary value 1.00) [2] | binding to P100 relative to ZElan021 (arbitrary value 1.00) [3] | binding to P100 relative to ZElan021 (arbitrary value 1.00) [4] | binding to P100 relative to ZElan021 (arbitrary value 1.00) [5] | binding to P100 relative to ZElan021 (arbitrary value 1.00) [6] | binding to P100 relative to ZElan021 (arbitrary value 1.00) [7] | binding to P100 relative to ZElan021 (arbitrary value 1.00) [8] | Binder |
| --- | --- | --- | --- | --- | --- | --- | --- | --- |
| 1 | 1 | 1 | 1 | 1 | 1 | 1.14 | 0.94 | K(Dansyl)SDHALGTNLRSDNAKEPGDYNCCGNGNSTGRKVFNRRRPSAIPT (cysteine pairing not given here) [ZElan021, full length HAX42] |
| – | – | – | 2.02 | 1.37 | 1.2 | 0.85 | – | K(Dansyl)PGDYNCCGNGNSTG (cysteine pairing not given here) [ZElan091, HAX42 14 mer fragment] |
